Experimental data as given in patent publication US20130122013A1 (Eli Lilly, published 2013).
Where a chain is given by its changes, count along the chain named.

B1: Mab 4A10-3 (antibody, human IgG4 S228P, kappa, F234A L235A, V domains shown)
VH: QVQLVQSGAEVKKPGSSVKVSCKASGYAFTSFLIEWVRQAPGQGLEWMGTSNPRTGGRKYKEKFRGRVTITADKSTSTAYMELSSLRSEDTAVYYCAREFFDYWGQGTTVTVSS
VL: DIQMTQSPSSLSASVGDRVTITCRASKSISKYTAWYQQKPGKAPKLLIYAGSKLHWGVPSRFSGSGSGTDFTLTISSLQPEDFATYYCQQHNEYPYTFGGGTKVEIKR
B2: Mab Combi11 (antibody, human IgG4 S228P, kappa, F234A L235A, V domains shown)
VH: B1 VH with G57R, R58T, E62S
VL: B1 VL with L54R

Key:
human ferroportin 1 [1] = target: T1, human ferroportin 1 (human, UniProt Q9NP59 1-571); test: inhibition of binding of 30 nM biotinylated hepcidin to FPN/293 cells, ELISA of lysate; control antibody at 125 nM; mean
T1 sequence: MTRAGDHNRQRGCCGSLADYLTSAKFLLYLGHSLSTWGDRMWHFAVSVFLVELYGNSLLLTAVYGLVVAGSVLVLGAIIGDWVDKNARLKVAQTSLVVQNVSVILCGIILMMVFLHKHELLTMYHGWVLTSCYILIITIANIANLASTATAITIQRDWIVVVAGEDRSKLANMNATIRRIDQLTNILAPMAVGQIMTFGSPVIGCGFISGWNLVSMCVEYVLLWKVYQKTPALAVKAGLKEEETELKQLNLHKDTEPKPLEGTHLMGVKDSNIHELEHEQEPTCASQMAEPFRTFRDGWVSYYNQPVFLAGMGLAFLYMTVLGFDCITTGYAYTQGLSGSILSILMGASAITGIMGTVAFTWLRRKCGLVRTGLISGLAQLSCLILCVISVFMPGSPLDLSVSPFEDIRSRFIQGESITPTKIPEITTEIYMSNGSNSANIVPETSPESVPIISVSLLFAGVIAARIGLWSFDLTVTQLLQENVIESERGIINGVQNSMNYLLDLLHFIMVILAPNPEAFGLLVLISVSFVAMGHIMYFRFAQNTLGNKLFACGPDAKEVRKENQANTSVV

human ferroportin 1 [2] = target: T1, human ferroportin 1; test: inhibition of binding of 30 nM biotinylated hepcidin to FPN/293 cells, ELISA of lysate; control antibody at 500 nM; mean
human ferroportin 1 [3] = target: T1, human ferroportin 1; test: inhibition of binding of 30 nM biotinylated hepcidin to FPN/293 cells, ELISA of lysate; control antibody at 7.8 nM; mean
human ferroportin 1 [4] = target: T1, human ferroportin 1; test: inhibition of binding of 30 nM biotinylated hepcidin to FPN/293 cells, ELISA of lysate; control antibody at 2000 nM; mean
human ferroportin 1 [5] = target: T1, human ferroportin 1; test: inhibition of binding of 30 nM biotinylated hepcidin to FPN/293 cells, ELISA of lysate; control antibody at 31.25 nM; mean
human ferroportin 1 [6] = target: T1, human ferroportin 1; test: cell-based or functional assay
[7] = target: T2, human FPN1 C-terminally fused with GFP (human, UniProt Q9NP59 1-571, GFP reporter fused to the C-terminus ("FPN1 is C-terminally fused with GFP"). It is left out because the patent gives no letters for it.); test: inhibition of binding of 30 nM biotinylated hepcidin to FPN-GFP/293 cells, ELISA of lysate; control antibody at 1.2 uM; mean
T2 sequence: T1 sequence

[8] = target: T2, human FPN1 C-terminally fused with GFP; test: inhibition of binding of 30 nM biotinylated hepcidin to FPN-GFP/293 cells, ELISA of lysate; control antibody at 6.0 uM; mean
[9] = target: T2, human FPN1 C-terminally fused with GFP; test: inhibition of binding of 30 nM biotinylated hepcidin to FPN-GFP/293 cells, ELISA of lysate; control antibody at 0.24 uM; mean
[10] = target: T2, human FPN1 C-terminally fused with GFP; test: inhibition of binding of 30 nM biotinylated hepcidin to FPN-GFP/293 cells, ELISA of lysate; control antibody at 0.048 uM; mean
[11] = target: T2, human FPN1 C-terminally fused with GFP; test: cell-based or functional assay
rat ferroportin = target: T3, rat ferroportin (rat, UniProt Q923U9 1-570, limits assumed); test: not described; told in the pharmacokinetics example
T3 sequence (looked up): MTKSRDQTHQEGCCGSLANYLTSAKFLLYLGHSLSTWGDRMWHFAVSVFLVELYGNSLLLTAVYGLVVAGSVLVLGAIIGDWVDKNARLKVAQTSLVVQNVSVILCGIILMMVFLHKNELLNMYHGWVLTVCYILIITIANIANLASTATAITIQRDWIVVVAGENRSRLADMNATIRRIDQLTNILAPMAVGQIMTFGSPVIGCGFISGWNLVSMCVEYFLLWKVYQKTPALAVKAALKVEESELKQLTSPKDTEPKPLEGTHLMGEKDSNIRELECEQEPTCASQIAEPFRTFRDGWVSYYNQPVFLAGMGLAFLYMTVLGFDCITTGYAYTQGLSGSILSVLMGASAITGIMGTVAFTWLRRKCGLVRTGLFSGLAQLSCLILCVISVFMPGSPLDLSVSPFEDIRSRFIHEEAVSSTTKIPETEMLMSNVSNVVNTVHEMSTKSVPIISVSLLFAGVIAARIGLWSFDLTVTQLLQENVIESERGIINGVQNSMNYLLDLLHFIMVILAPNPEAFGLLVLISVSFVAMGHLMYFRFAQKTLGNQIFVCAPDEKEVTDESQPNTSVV

human ferroportin 1 [12] = target: T1, human ferroportin 1; test: inhibition of binding of 30 nM biotinylated hepcidin to FPN/293 cells, ELISA of lysate; antibody at 125 nM; mean
human ferroportin 1 [13] = target: T1, human ferroportin 1; test: inhibition of binding of 30 nM biotinylated hepcidin to FPN/293 cells, ELISA of lysate; antibody at 500 nM; mean
human ferroportin 1 [14] = target: T1, human ferroportin 1; test: inhibition of binding of 30 nM biotinylated hepcidin to FPN/293 cells, ELISA of lysate; antibody at 7.8 nM; mean
human ferroportin 1 [15] = target: T1, human ferroportin 1; test: inhibition of binding of 30 nM biotinylated hepcidin to FPN/293 cells, ELISA of lysate; antibody at 2000 nM; mean
human ferroportin 1 [16] = target: T1, human ferroportin 1; test: inhibition of binding of 30 nM biotinylated hepcidin to FPN/293 cells, ELISA of lysate; antibody at 31.25 nM; mean

Molecule	Absolute IC50 of inhibition of hepcidin-25-induced internalization and degradation of FPN1-GFP [11] [nM]	Relative IC50 of inhibition of hepcidin-25-induced internalization and degradation of FPN1-GFP [11] [nM]	Top % Inhibition of hepcidin-25-induced internalization and degradation of FPN1-GFP [11] [%]	EC50 of inhibition of mature hepcidin induced increase in cellular ferritin, Caco-2 cells (human ferroportin 1 [6]) [nM]	Percentage inhibition of mature hepcidin induced increase in cellular ferritin, Caco-2 cells, Mab at 2.22E-7 M (human ferroportin 1 [6]) [%]	Percentage inhibition of mature hepcidin induced increase in cellular ferritin, Caco-2 cells, Mab at 2.47E-8 M (human ferroportin 1 [6]) [%]	Percentage inhibition of mature hepcidin induced increase in cellular ferritin, Caco-2 cells, Mab at 2.7E-9 M (human ferroportin 1 [6]) [%]	Percentage inhibition of mature hepcidin induced increase in cellular ferritin, Caco-2 cells, Mab at 3.0E-10 M (human ferroportin 1 [6]) [%]	Percentage inhibition of mature hepcidin induced increase in cellular ferritin, Caco-2 cells, Mab at 6.67E-7 M (human ferroportin 1 [6]) [%]	Percentage inhibition of mature hepcidin induced increase in cellular ferritin, Caco-2 cells, Mab at 7.4E-8 M (human ferroportin 1 [6]) [%]	Percentage inhibition of mature hepcidin induced increase in cellular ferritin, Caco-2 cells, Mab at 8.0E-9 M (human ferroportin 1 [6]) [%]	Percentage inhibition of mature hepcidin induced increase in cellular ferritin, Caco-2 cells, Mab at 9.0E-10 M (human ferroportin 1 [6]) [%]	binding result (rat ferroportin)	% Inhibition (human ferroportin 1 [12]) [%]	% Inhibition (human ferroportin 1 [13]) [%]	% Inhibition (human ferroportin 1 [14]) [%]	% Inhibition (human ferroportin 1 [15]) [%]	% Inhibition (human ferroportin 1 [16]) [%]	further results
control IgG (antibody)	–	–	–	–	–	–	–	–	–	–	–	–	–	–	–	–	–	–	% Inhibition (human ferroportin 1 [1]): 1.9%; % Inhibition (human ferroportin 1 [2]): -0.7%; % Inhibition (human ferroportin 1 [3]): 2.5%; % Inhibition (human ferroportin 1 [4]): -2.5%; % Inhibition (human ferroportin 1 [5]): 7.9%
Mouse IgG1, a negative control (antibody)	–	–	–	–	–	–	–	–	–	–	–	–	–	–	–	–	–	–	% Inhibition of hepcidin-induced ferritin increase in Caco-2 cells, 6.25 µg/mL (human ferroportin 1 [6]): 0%; % Inhibition of hepcidin-induced ferritin increase in Caco-2 cells, 12.5 µg/mL (human ferroportin 1 [6]): 0%; % Inhibition of hepcidin-induced ferritin increase in Caco-2 cells, 25 µg/mL (human ferroportin 1 [6]): 7.2%; % Inhibition of hepcidin-induced ferritin increase in Caco-2 cells, 50 µg/mL (human ferroportin 1 [6]): 0%; % Inhibition of hepcidin-induced ferritin increase in Caco-2 cells, 100 µg/mL (human ferroportin 1 [6]): 3.5%; % Inhibition of hepcidin-induced ferritin increase in Caco-2 cells, 200 µg/mL (human ferroportin 1 [6]): 11.6%; Ferritin (ng)/protein (µg) in hepcidin-treated Caco-2 cells, 6.25 µg/mL (ng ferritin/µg protein) (human ferroportin 1 [6]): 10.4; Ferritin (ng)/protein (µg) in hepcidin-treated Caco-2 cells, 12.5 µg/mL (ng ferritin/µg protein) (human ferroportin 1 [6]): 10; Ferritin (ng)/protein (µg) in hepcidin-treated Caco-2 cells, 25 µg/mL (ng ferritin/µg protein) (human ferroportin 1 [6]): 9.6; Ferritin (ng)/protein (µg) in hepcidin-treated Caco-2 cells, 50 µg/mL (ng ferritin/µg protein) (human ferroportin 1 [6]): 10.1; Ferritin (ng)/protein (µg) in hepcidin-treated Caco-2 cells, 100 µg/mL (ng ferritin/µg protein) (human ferroportin 1 [6]): 9.78; Ferritin (ng)/protein (µg) in hepcidin-treated Caco-2 cells, 200 µg/mL (ng ferritin/µg protein) (human ferroportin 1 [6]): 9.4; % Inhibition [7]: 0.5%; % Inhibition [8]: -3.4%; % Inhibition [9]: -4%; % Inhibition [10]: -11%
B1	5.7	4.7	85.9	37	59.6	36.2	24.9	12	61.9	45.6	28	19.5	no binding	59.3	84.9	5.4	95.3	13.4	–
B2	3.8	3.7	92.6	28	69.3	45.3	34.8	14.2	75.2	61.1	31.6	23.3	no binding	88.4	81.6	18.7	79.9	32.1	–
